Reference: US20140179896A1 (published 2014)
Residue numbers refer to the chain shown, from its start.

B1: G2 (designed binder)
chain: EVVAATPTSLLISWRHPHFPTRYYRITYGETGGNSPVQEFTVPLQPPTATISGLKPGVDYTITGYAVTLERNNRELLTPISINYRT
notes: 10Fn3 clone, Del 1-8
B2: G3 (designed binder)
chain: B1 chain with L69M, N72S, N73G, L77M
notes: 10Fn3 clone, Del 1-8
B3: G4 (designed binder)
chain: B1 chain with L69I, R71K, N73G, E75H, L77N, T78I
notes: 10Fn3 clone, Del 1-8
B4: E23 (designed binder)
chain: EVVAATPTSLLISWRHHPHFPTRYYRITYGETGGNSPVQEFTVPLQPPTATISGLKPGVDYTITGYAVTVHWNGRELMTPISINYRT
notes: 10Fn3 clone, Del 1-8
B5: 2C6 PR3 (designed binder)
chain: VSDVPRDLEVVAATPTSLLISWRHPHFPTRYYRITYGETGGNSPVQEFTVPLQPPTATISGLKPGVDYTITGYAVTVEPNGHKLAIPISINYRT
notes: tag left out
B6: 2F3 PR3 (designed binder)
chain: B5 chain with V77L, E78S, P79H, N80Y, H82K, K83E, A85R, I86T
notes: tag left out
B7: 2G12 PR3 (designed binder)
chain: B5 chain with V77S, E78G, P79Q, G81D, K83A, A85L
notes: tag left out
B8: 2H12 PR3 (designed binder)
chain: B5 chain with V77E, E78G, P79Y, N80Q, G81N, K83E, A85S, I86V
notes: tag left out
B9: 2′F6-PR4 (designed binder)
chain: B5 chain with V77L, E78G, P79W, G81D, K83E, A85Y
notes: tag left out
B10: 2F10 PR3 (designed binder)
chain: B5 chain with V77L, E78A, P79L, N80F, G81D, K83E, A85L, I86T
notes: tag left out
B11: 2′B4-PR4 (designed binder)
chain: B5 chain with V77S, E78G, P79H, K83E, L84V, A85M, I86T
notes: tag left out
B12: 2C12 PR3 (designed binder)
chain: B5 chain with V77D, E78A, P79Q, G81V, H82Q, K83A, L84P, A85I, I86A, P87Q
notes: tag left out
B13: 2′F7-PR4 (designed binder)
chain: B5 chain with V77L, E78G, P79L, N80R, G81D, H82R, K83E, A85F, I86V
notes: tag left out
B14: 2′C7-PR4 (designed binder)
chain: B5 chain with V77W, E78D, P79Q, K83V, A85L, I86T
notes: tag left out
B15: 2D12 PR3 (designed binder)
chain: B5 chain with V77E, E78G, P79W, N80I, G81D, K83E, L84I, A85M
notes: tag left out
B16: 2H10 PR3 (designed binder)
chain: B5 chain with V77L, E78A, N80S, G81A, H82R, K83E, A85M, I86T
notes: tag left out
B17: 2′B9-PR4 (designed binder)
chain: B5 chain with E78G, N80T, G81D, K83E, A85L, I86T
notes: tag left out
B18: 2G9 PR3 (designed binder)
chain: B5 chain with V77E, E78I, P79Y, G81D, K83E, A85M, I86T
notes: tag left out
B19: 2′A1-PR4 (designed binder)
chain: B5 chain with V77S, E78G, P79H, G81D, K83M, A85M
notes: tag left out
B20: 2′D5-PR4 (designed binder)
chain: B5 chain with E78A, P79W, G81D, K83M, A85M, I86T
notes: tag left out
B21: 2′G11-PR4 (designed binder)
chain: B5 chain with V77G, E78G, P79Q, N80M, G81N, H82R, K83V, A85M, I86T
notes: tag left out
B22: 2C9 PR3 (designed binder)
chain: B5 chain with V77E, E78A, H82R, K83E, A85R, I86T
notes: tag left out
B23: 2′A11-PR4 (designed binder)
chain: B5 chain with V77E, E78D, P79I, N80R, G81V, H82L, K83W, A85N, I86T, P87T
notes: tag left out
B24: 2′H5-PR4 (designed binder)
chain: B5 chain with V77L, E78G, P79K, N80D, G81V, H82R, K83E, A85L, I86T
notes: tag left out
B25: 4A12 PR3 (designed binder)
chain: B1 chain with L69V, E70A, R71Q, N73D, R74H
notes: tag left out
B26: 1′DelD3 PR4 (designed binder)
chain: B1 chain with E70A, R71Q, R74H, L77I
notes: tag left out
B27: 1′DelH1 PR4 (designed binder)
chain: B1 chain with L69V, E70A, R71Q, N73G, R74H, L77I
notes: tag left out
B28: 1′DelH6 PR4 (designed binder)
chain: B1 chain with L69V, E70G, R71Q, N72Y, N73D, R74H, L77I
notes: tag left out
B29: 1′DelB10 PR4 (designed binder)
chain: B1 chain with L69V, E70A, N73D, R74H, L77M
notes: tag left out
B30: 1′DelC5 PR4 (designed binder)
chain: B1 chain with E70A, R71Q, N73D, R74H, L76I, L77M
notes: tag left out
B31: 1′DelC6 PR4 (designed binder)
chain: B1 chain with L69V, E70A, R71Q, N73E, R74H
notes: tag left out
B32: 1′DelG9 PR4 (designed binder)
chain: B1 chain with L69V, E70A, R71Q, N72S, N73D, R74H, L77M
notes: tag left out
B33: 1′DelA9 PR4 (designed binder)
chain: B1 chain with E70A, R71Q, N73D, R74H, L77M
notes: tag left out
B34: 1′DelE12 PR4 (designed binder)
chain: B1 chain with L69V, E70A, R71Q, N72S, N73D, R74H, L77F
notes: tag left out
B35: 1′DelB7 PR4 (designed binder)
chain: B1 chain with L69V, E70A, R71Q, N73D, R74H, L77K
notes: tag left out
B36: 1′DelE11 PR4 (designed binder)
chain: B1 chain with L69V, E70A, R71Q, N73D, L77I
notes: tag left out
B37: 1′DelC4 PR4 (designed binder)
chain: B1 chain with L69V, E70A, R71Q, N72S, R74H, L77M
notes: tag left out
B38: 1′DelC10 PR4 (designed binder)
chain: B1 chain with L69V, E70A, R71K, N73D, R74H, L77I
notes: tag left out
B39: 1′DelC2 PR4 (designed binder)
chain: B1 chain with L69V, E70D, N73D, R74H, L77F
notes: tag left out
B40: 1′DelG11 PR4 (designed binder)
chain: B1 chain with E70A, R71Q, N73G, R74H, E75V, L77I
notes: tag left out

Target: T1, mouse vascular endothelial growth factor receptor-2 Fc chimera (Flk-1-Fc) (mouse, UniProt P35918 20-762)
T1 construct: Bought from R&D Systems; also called mouse VEGFR-2; not shown: Fc part of the purchased chimera, not specified
Assay: radioactive equilibrium binding assay, 1 nM Flk-1-Fc, % of input bound
Protocol: To prepare ³⁵S-labeled binding proteins for analysis, mRNA was prepared as described above for RNA-protein fusion production but the linker ligation step was omitted. The mRNA was expressed using rabbit reticulocyte lysate translation kit (Ambion) in the presence of ³⁵S-labeled Met at 30° C. for 1 hour. Expressed protein was purified on M2-agarose Flag beads (Sigma) as described above. This procedure produced the encoded protein without the nucleic acid tail. In a direct binding assay, VEGF-R2-Fc fusions in concentrations ranging from 0 to 200 nM were added to a constant concentration of the purified protein (0.2 or 0.5 nM) and incubated at 30° C. for 1 hour in buffer B. The receptor-binder complexes were captured using Protein A magnetic beads for another 10 minutes at room temperature using a Kingfisher™ The beads were washed with six reaction volumes of buffer B. The protein was eluted from the beads with 100 μL of 0.1 M KOH. […] of the reaction mixture and elution were dried onto a LumaPlate-96 (Packard) and the amount of ³⁵S on the plate was measured using a TopCount NXT instrument (Packard). The amount of fibronectin-based scaffold protein bound to the target was estimated as a percent of radioactivity eluted from Protein A magnetic beads compare to radioactivity in the reaction mixture. Nonspecific binding of fibronectin-based scaffold proteins to the beads was determined by measuring binding in the absence of KDR-Fc and represented less than 1-2% of the input. Specific binding was obtained through subtraction of nonspecific binding from total binding. Data was analyzed using the GraphPad Prizm software (GraphPad Software, Inc, San Diego, Calif.), fitted using a one site, non-linear binding equation.

T1 sequence (P35918 20-762, change not shown): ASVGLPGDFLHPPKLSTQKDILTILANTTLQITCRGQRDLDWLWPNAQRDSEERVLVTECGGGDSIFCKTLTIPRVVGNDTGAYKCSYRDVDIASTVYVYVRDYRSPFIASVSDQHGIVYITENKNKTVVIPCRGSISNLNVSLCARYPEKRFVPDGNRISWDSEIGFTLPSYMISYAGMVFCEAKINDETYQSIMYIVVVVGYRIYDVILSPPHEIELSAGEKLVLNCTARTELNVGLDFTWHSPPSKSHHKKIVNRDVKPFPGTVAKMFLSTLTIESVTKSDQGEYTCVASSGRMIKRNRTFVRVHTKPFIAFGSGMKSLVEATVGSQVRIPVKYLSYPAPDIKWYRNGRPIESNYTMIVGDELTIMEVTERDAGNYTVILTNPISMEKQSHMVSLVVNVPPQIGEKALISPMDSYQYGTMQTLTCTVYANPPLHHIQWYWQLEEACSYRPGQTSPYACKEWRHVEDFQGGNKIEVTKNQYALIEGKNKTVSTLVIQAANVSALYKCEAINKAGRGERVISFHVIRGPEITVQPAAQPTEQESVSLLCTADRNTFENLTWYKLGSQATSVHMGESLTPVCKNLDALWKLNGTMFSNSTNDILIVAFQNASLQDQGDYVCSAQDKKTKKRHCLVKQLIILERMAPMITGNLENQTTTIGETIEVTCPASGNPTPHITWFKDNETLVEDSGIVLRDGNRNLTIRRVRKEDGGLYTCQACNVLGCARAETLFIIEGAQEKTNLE

Binding to 1 nM Flk-1, %	Binder
9%	B1
10%	B2
12%	B3
7%	B4

Target: T2, human vascular endothelial growth factor receptor-2 Fc chimera (KDR-Fc) (human, UniProt P35968 20-764)
T2 construct: range 1-764; also called human VEGFR-2; not shown: human IgG1 Fc
Assay: radioactive equilibrium binding assay, 1 nM KDR-Fc, % of input bound
How it was run: (§1)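 Percent of input bound is specific binding: total ³⁵S eluted from Protein A beads minus nonspecific bead binding without receptor. The binder (0.2 or 0.5 nM) was incubated with titrated VEGF-R2-Fc in buffer B, 30° C, 1 h.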
T2 sequence (P35968 20-764 limits assumed, change not shown, form in doubt): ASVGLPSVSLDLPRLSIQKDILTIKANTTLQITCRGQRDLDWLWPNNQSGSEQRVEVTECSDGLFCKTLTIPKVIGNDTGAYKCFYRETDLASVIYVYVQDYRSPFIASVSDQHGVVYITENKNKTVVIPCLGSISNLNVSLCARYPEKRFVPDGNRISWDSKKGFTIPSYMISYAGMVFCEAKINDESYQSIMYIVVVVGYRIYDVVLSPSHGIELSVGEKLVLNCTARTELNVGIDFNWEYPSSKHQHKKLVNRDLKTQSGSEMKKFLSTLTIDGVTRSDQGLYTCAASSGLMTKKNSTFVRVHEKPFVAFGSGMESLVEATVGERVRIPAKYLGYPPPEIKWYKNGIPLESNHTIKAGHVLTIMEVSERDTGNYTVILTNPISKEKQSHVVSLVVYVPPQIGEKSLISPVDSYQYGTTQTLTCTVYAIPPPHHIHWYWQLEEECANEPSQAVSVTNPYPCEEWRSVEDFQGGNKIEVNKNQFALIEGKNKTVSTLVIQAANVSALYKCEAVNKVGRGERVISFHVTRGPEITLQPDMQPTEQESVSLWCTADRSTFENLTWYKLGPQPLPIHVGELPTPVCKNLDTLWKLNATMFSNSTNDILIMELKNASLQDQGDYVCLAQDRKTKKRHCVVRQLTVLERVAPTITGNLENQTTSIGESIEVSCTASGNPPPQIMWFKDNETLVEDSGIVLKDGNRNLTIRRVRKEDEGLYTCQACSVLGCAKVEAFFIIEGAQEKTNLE

Binding to 1 nM KDR, %	Binder
25%	B1
28%	B2
21%	B3
36%	B4

Target: T3, human vascular endothelial growth factor receptor-2 Fc chimera (KDR-Fc) (human, UniProt P35968 20-764)
T3 construct: range 1-764; purchased from R&D Systems; also called hKDR; human VEGF-R2-Fc; not shown: human IgG1 Fc
Assay: radioactive equilibrium binding, 1 nM KDR-Fc
How it was run: as §1
T3 sequence (P35968 20-764 limits assumed, change not shown, form in doubt): as above

Binding to 1 nM KDR, %	Binder
5%	B5
8%	B6
6%	B7
10%	B8
4%	B9
3%	B10
4%	B11
6%	B12
5%	B13
5%	B14
14%	B15
10%	B16
7%	B17
9%	B18
11%	B19
11%	B20
12%	B21
7%	B22

Binding to 1 nM KDR, %	Binder
6%	B23
3%	B24
13%	B25
12%	B26
9%	B27
6%	B28
11%	B29
11%	B30
12%	B31
10%	B32
13%	B33
13%	B34
8%	B35
9%	B36
9%	B37
8%	B38
13%	B39
11%	B40
